Assay [1] addresses T1, NrdJd-wt (Snas 4560), full-length class II RNR (Stackebrandtia nassauensis, UniProt D3Q6G1).
T1 construct: gene Snas_4560; monomer/dimer, tetramer/hexamer with dATP or dGTP
T1 sequence (D3Q6G1 1-946): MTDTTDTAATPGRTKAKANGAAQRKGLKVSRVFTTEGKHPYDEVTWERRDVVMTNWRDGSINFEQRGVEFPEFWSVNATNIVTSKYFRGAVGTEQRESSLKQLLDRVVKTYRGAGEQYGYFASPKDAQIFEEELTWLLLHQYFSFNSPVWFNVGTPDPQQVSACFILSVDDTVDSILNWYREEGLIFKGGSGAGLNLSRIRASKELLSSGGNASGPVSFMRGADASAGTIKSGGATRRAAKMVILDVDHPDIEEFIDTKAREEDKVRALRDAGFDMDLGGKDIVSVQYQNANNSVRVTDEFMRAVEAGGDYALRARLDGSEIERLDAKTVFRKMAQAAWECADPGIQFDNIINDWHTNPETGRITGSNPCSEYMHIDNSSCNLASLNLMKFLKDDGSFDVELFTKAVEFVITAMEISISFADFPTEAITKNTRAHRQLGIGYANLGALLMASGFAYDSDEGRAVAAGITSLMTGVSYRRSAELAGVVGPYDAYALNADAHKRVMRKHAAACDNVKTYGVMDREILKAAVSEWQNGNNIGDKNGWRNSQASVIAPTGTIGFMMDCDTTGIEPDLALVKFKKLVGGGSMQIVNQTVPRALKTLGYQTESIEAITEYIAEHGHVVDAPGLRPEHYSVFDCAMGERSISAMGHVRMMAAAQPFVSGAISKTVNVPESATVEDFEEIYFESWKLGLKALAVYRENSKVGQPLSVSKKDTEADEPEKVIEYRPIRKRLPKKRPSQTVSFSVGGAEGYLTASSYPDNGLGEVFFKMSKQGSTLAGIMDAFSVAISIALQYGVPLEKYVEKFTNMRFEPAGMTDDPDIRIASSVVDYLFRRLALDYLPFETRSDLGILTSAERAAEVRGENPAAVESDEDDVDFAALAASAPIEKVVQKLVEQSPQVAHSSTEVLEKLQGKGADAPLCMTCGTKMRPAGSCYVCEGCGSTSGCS
As to the kind of experiment: effector titration of NDP reductase activity, HPLC. The settings on record: half-maximal activation by allosteric effector, AdoCbl. It counts as biochemical.

The target of another assay is T2, NrdJdΔCRD (Stackebrandtia nassauensis, UniProt D3Q6G1).
T2 construct: gene Snas_4560; catalytic domain, residues 1-714 (codon 715 replaced by stop), C-terminal cysteine-rich domain removed; mainly monomer
Put plainly: effector titration of NDP reductase activity, HPLC. It counts as biochemical. To be noted: half-maximal activation by allosteric effector; range printed for all effectors together; single preferred NDP substrate; AdoCbl; Tris pH 8.0, 20 mM MgCl2, 50 mM DTT, room temperature.

Assay [2] has as its target T1, NrdJd-wt (Snas 4560), full-length class II RNR. As to the kind of experiment: GEMMA oligomerization titration. It counts as binding. The settings on record: effector-induced tetramer/hexamer formation; 0.075 mg/ml protein; 40 mM ammonium acetate pH 7.8, equimolar MgCl2; possible further nucleotide site.
Assay [3] concerns the target T3, C933A/C370A mixture (mutant mix) of NrdJd (Stackebrandtia nassauensis, UniProt D3Q6G1, C370A/C933A).
T3 construct: gene Snas_4560; equimolar mixture of two separately purified full-length single mutants (not a double mutant)
As to the kind of experiment: effector titration of CDP reductase activity, HPLC. It counts as biochemical. The settings on record: half-maximal activation by allosteric effector; equimolar mixture of two single mutants; substrate CDP; reductant TCEP; AdoCbl; standard assay Tris pH 8.0, 20 mM MgCl2, room temperature.

Assay [4] deals with NrdJd-wt, the full-length version of the Stackebrandtia nassauensis class II ribonucleotide reductase (Stackebrandtia nassauensis). Put plainly: GEMMA (gas phase electrophoretic macromolecule analysis); 0.075 mg/ml NrdJd-wt with dGTP (100 μM, and a titration of dGTP), equimolar MgCl2; 40 mM ammonium acetate pH 7.8, 0.005% Tween 20, 0.2 mM DTT.
Assay [5] has the same target. As to the kind of experiment: SEC; analytical SEC, Superdex 200 Increase 3.2, 25 μl of 1.0 mg/ml protein, 50 mM Tris pH 7.5, 300 mM NaCl, 1 mM DTT, in the presence or absence of 100 μM effector (dATP). On the technique in general: In gel filtration, larger molecules generally elute earlier.
Assay [6] shares this target. Put plainly: GEMMA (gas phase electrophoretic macromolecule analysis); 0.075 mg/ml NrdJd-wt, no effector; 40 mM ammonium acetate pH 7.8, 0.005% Tween 20, 0.2 mM DTT.
Assay [7] shares this target. Put plainly: GEMMA (gas phase electrophoretic macromolecule analysis); 0.075 mg/ml NrdJd-wt with 100 μM dTTP, equimolar MgCl2; 40 mM ammonium acetate pH 7.8, 0.005% Tween 20, 0.2 mM DTT.
Assay [8] shares this target. As to the kind of experiment: GEMMA (gas phase electrophoretic macromolecule analysis); 0.075 mg/ml NrdJd-wt with dATP (100 μM, and a titration of dATP), equimolar MgCl2; 40 mM ammonium acetate pH 7.8, 0.005% Tween 20, 0.2 mM DTT.
The target is the same in assay [9]. As to the kind of experiment: GEMMA (gas phase electrophoretic macromolecule analysis); 0.075 mg/ml NrdJd-wt with dCTP, equimolar MgCl2; 40 mM ammonium acetate pH 7.8, 0.005% Tween 20, 0.2 mM DTT.
The target of assay [10] is NrdJdΔCRD, the C-terminally deleted version of the S. nassauensis class II ribonucleotide reductase (Stackebrandtia nassauensis). As to the kind of experiment: GEMMA (gas phase electrophoretic macromolecule analysis); 0.025 mg/ml NrdJdΔCRD, with or without 100 μM effector (dATP); 40 mM ammonium acetate pH 7.8, 0.005% Tween 20, 0.2 mM DTT.
Assay [11] deals with S. nassauensis NrdJd C933A, C-terminal (CRD) mutant (Stackebrandtia nassauensis).
[12] abbreviates: single preferred NDP substrate (not given), Tris pH 8.0, 20 mM MgCl2, 50 mM DTT (standard conditions), room temperature, upper limit sta.

Values joined by “and” are separate entries in the source; they are usually repeats but may differ in a detail not shown here. Identical values can stand only once.

Consider eight molecules from paper PMC5704485, “A unique cysteine-rich zinc finger domain present in a majority of class II ribonucleotide reductases mediates catalytic turnover” (The Journal of Biological Chemistry, 2017).

T3 sequence (D3Q6G1 entry or part of it C370A): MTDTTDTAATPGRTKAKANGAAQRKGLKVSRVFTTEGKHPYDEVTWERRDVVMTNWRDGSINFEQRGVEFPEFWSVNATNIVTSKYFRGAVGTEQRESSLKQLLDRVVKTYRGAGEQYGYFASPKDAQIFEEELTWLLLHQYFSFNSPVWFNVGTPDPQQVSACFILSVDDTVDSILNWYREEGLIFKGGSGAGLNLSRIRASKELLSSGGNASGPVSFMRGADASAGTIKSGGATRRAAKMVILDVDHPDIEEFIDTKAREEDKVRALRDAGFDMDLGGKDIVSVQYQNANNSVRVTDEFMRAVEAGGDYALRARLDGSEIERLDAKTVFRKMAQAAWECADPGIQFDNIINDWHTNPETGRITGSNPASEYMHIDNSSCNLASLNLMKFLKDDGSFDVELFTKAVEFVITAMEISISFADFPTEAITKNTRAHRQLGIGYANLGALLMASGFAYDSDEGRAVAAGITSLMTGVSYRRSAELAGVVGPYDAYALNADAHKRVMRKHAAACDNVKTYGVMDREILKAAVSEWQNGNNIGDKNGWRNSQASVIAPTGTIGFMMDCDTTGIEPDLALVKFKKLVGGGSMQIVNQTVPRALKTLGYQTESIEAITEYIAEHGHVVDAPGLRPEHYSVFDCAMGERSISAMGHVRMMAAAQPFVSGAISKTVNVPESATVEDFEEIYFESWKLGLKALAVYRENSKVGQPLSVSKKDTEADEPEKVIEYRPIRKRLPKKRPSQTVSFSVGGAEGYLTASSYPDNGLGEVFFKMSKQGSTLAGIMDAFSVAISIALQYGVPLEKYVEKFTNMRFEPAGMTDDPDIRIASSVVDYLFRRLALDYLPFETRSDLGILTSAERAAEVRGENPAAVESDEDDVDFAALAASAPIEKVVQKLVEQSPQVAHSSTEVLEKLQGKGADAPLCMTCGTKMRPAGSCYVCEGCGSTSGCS
T3 sequence (D3Q6G1 entry or part of it C933A): as the sequence (D3Q6G1 entry or part of it C370A) above, with A370C, C933A counted along it

Regarding `Nc1ncnc2c1ncn2[C@@H]1O[C@H](COP(=O)(O)OP(=O)(O)OP(=O)(O)O)[C@@H](O)[C@H]1O` [ATP], in [1] (setting [12]), the EC50 is under 4 µM. Also, the KL entry at NrdJdΔCRD is “the affinity of the C-terminal truncated enzyme toward each tested effector is reduced”.

With `Nc1ncnc2c1ncn2[C@H]1C[C@H](O)[C@@H](COP(=O)(O)OP(=O)(O)OP(=O)(O)O)O1` [dATP], the EC50 in [1] (substrate CDP, reductant TCEP, standard assay Tris pH 8.0, 20 mM MgCl2, room temperature) was under 4 µM; in assay [3] it was 15 ± 4.5 µM. For the same molecule, the “concentration with half the enzyme as tetramer or hexamer” value in [2] is recorded as ~ 17 μmol liter^−1.

In turn, `Nc1ccn([C@H]2C[C@H](O)[C@@H](COP(=O)(O)OP(=O)(O)OP(=O)(O)O)O2)c(=O)n1` [dCTP] registered an EC50 in assay [1] (setting [12]) of under 4 µM.

Molecule `Nc1nc2c(ncn2[C@H]2C[C@H](O)[C@@H](COP(=O)(O)OP(=O)(O)OP(=O)(O)O)O2)c(=O)[nH]1` [dGTP] showed an EC50 in [1] (setting [12]) of under 4 µM.

In [1] (setting [12]), `Cc1cn([C@H]2C[C@H](O)[C@@H](COP(=O)(O)OP(=O)(O)OP(=O)(O)O)O2)c(=O)[nH]c1=O` [dTTP] gave an EC50 of under 4 µM.

“NrdJd-wt, the full-length version of the Stackebrandtia nassauensis class II ribonucleotide reductase (enzyme)”: the stoichiometry N is 4 and 6 in [4]; 4 in assay [5]; 2 in assay [6]; 2 in assay [7]; 4 and 6 in [8]; 2 in assay [9].

“NrdJdΔCRD, the C-terminally deleted version of the S. nassauensis class II ribonucleotide reductase (domain or fragment)” gave a stoichiometry N in assay [10] of 2.

In the case of “S. nassauensis NrdJd C370A, active site cysteine-deficient mutant (enzyme)”, in [11], the RNR activity of the C933A/C370A mixture, substrate/effector GDP/dTTP (dimers only), TCEP as reductant, dTTP titrated 4 to 1000 μM, relative to NrdJd-wt (3 to 7%) (% of NrdJd-wt) lay within 3 to 7; the Vmax of RNR activity of the C933A/C370A mixture, substrate/effector CDP/dATP (tetramers and hexamers), TCEP as reductant, relative to NrdJd-wt (% of the wild type) is 30.

What is called EC50 is the concentration needed to bring the measured effect to its halfway point. What is called stoichiometry N is a count of units in the complex or per binding partner.
